Read-outs that look alike come from different tables or passages of the source. Blank lines part the entries; values can stand above or below the molecule they belong to. Where no end group is shown, it is not given here.
Assays:
[1] = target: T1, D-CGRP (biotinylated, all-D alpha-calcitonin gene-related peptide) (Rattus norvegicus) (UniProt P01256); conditions: 2'-F pyrimidines
T1 sequence: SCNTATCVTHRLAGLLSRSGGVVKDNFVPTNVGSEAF

[2] = target: T2, alpha-CGRP (L) (Homo sapiens) (UniProt P06881); assay: ITC; conditions: L-RNA; 37 C, activity 80%
T2 sequence: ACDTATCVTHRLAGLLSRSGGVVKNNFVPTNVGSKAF

[3] = target: T1, D-CGRP (biotinylated, all-D alpha-calcitonin gene-related peptide) (Rattus norvegicus); assay: SPR; conditions: 2'-F pyrimidines; clone shortened by two nucleotides; Biacore and ITC; higher by factor two at 37 C
[4] = target: T1, D-CGRP (biotinylated, all-D alpha-calcitonin gene-related peptide) (Rattus norvegicus); assay: pulldown; conditions: 2'-F pyrimidines, bead assay, 37 C, unit uM, probably nM
[5] = target: T3, calcitonin receptor on SK-N-MC cells (human) (UniProt P30988); assay: cell-based or functional assay
T3 sequence (looked up): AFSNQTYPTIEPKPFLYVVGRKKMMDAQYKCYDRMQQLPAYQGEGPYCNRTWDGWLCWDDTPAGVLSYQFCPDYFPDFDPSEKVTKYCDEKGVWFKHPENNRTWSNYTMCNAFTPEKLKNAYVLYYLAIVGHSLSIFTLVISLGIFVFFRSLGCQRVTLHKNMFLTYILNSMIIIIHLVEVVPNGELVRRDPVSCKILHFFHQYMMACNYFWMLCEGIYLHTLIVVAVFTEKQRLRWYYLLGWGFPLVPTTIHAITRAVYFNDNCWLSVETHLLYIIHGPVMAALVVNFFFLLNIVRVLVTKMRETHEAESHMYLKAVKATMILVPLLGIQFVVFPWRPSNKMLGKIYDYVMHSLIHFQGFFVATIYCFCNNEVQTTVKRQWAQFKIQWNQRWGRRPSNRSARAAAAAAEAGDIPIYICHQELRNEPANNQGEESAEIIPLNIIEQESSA

[6] = target: CGRP receptor on SK-N-MC cells; assay: cell-based or functional assay
CGRP (biotinylated) = target: T4, CGRP (biotinylated) (Rattus norvegicus, UniProt P01256 P01256:83-119); assay: SPR; KD in narrow band around G12; conditions: protein: synthetic; tags: biotin; synthetic peptide, Jerini
T4 chain: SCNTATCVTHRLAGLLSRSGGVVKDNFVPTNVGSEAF

[7] = target: calcitonin receptor-like receptor (CRLR) on SK-N-MC cells (human) (UniProt Q16602); assay: cell-based or functional assay
calcitonin receptor-like receptor (CRLR) on SK-N-MC cells (human), sequence (Q16602 23-461): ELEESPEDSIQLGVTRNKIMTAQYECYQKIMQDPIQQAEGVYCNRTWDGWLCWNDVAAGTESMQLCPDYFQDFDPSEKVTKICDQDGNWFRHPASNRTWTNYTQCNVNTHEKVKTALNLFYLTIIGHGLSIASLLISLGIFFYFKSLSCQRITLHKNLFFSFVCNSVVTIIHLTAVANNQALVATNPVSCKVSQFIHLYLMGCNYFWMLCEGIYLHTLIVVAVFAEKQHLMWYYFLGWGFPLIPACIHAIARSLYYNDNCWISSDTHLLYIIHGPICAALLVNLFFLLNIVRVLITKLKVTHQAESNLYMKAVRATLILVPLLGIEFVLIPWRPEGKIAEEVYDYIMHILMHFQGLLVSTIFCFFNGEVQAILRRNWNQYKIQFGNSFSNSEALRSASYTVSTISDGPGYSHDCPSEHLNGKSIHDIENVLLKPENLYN

[8] = target: T3, calcitonin receptor on SK-N-MC cells (human); assay: cell-based or functional assay; remark: listed apart in the source
[9] = target: CGRP receptor on SK-N-MC cells; assay: cell-based or functional assay; remark: listed apart in the source

Molecule: CGCAGCCUUCACUGCAGUGACGCACGUAUGAUAGUUUCCAUUUUGGACUCCUGCG [732_045]
Kd [1]: 30000 nM

Molecule: CGCUCAGCCUUCACUGCAGUGACGCACGUAUGAUAGUUUCCAUUUUGGACUCCUGGGCG [732_096]
Kd [1]: 30000 nM

Molecule: GGACUGAUGGCGCGGUCCUAUUACGCCGAGAAGGGAGUGGGGGA [L097 (NOX-504-097) spiegelmer]
Kd [2]: 0.052 µM

Molecule: GGAGCUCAGCCUUCACUGCAGUGACGCACGUAUGAUAGUUUCCAUUUUGGACUCCUGGGCACCACGGUCGGAUCCAC [clone 732]
Kd ([1]; 666 with G20-A21 excised (in analogy to clone 732)): 20000 nM
Kd [3]: 10000 nM
Kd [4]: 23 µM

Molecule: GGAGCUCAGCCUUCACUGCGAAGUGACGCACGUAUGAUAGUUUCCAUUUUGGACUCCUGGGCACCACGGUCGGAUCCAC [clone 666]
Kd ([1]; unit uM, probably misprint for nM, method not specified here (Biacore/ITC in Ex. 1)): 10000 nM

Molecule: GGCAGCCUUCACUGCAGUGACGCACGUAUGAUAGUUUCCAAG / CUUGGACUCCUGCC [732_071a+732_071b]
Kd ([1]; two-strand binder): 100000 nM

Molecule: GGCAGCCUUCACUGCAGUGACGCACGUAUGAUAGUUUCCAUUUUGGACUCCUGCC [732_026]
Kd ([1]; stem shortened to five base pairs, FIG. 7): 30000 nM

Molecule: GGCAGCCUUCCUGCAGGACGCACGUAUGAUAGUUUCCUUUGGACUCCUGCC [732_100]
Kd ([1]; 51mer): 75000 nM

Molecule: GGCAGCCUUCCUGCAGGACGCACGUAUGAUAGUUUGCUUUGCACUCCUGCC [732_104]
Kd [1]: 40000 nM

Molecule: GGCAGCCUUGCUGCAGCACGCACGUAUGAUAGUUUCCUUUGGACUCCUGCC [732_103]
Kd [1]: 20000 nM

Molecule: GGCUCAGCCUUCACUGCAGUGACGCACGUAUGAUAGUUUCCAUUUUGGACUCCUGGGCC [732_029]
Kd [1]: 30000 nM

EC50, cAMP production in SK-N-MC cells [5]: 3 µM
Molecule: human amylin (from UniProt P10997 34-70) (peptide)

EC50, intracellular cAMP in SK-N-MC cells [6]: 1 µM
Molecule: human α-CGRP (from UniProt P06881 83-119) (peptide)

B1: G12a (ssRNA)
RNA: GGAGCUCAGCCUUCACUGCAUCGAGGCAUCCAAGUUAUAGGAAUAGGGUGGCUUGAAGGGCACCACGGUCGGAUCCAG
binding result (CGRP (biotinylated)): binds

B2: G12b (ssRNA)
RNA: GGAGCUCAGCCUUCACUGCAUCGAGGCAUCCAAGUUAUAGGAAUAGGGUGGCUUGAAGGGCACCACGGUCGGAUCCAG
binding result (CGRP (biotinylated)): binds

B3: G12e (ssRNA)
RNA: GGAGCUCAGCCUUCACUGCAUCGAGGCGAUCCAAGUUGUAGGAAUUGGAUGACUUGGAGGGCACCACGGUCGGAUCCAG
binding result (CGRP (biotinylated)): binds

B4: G12g (ssRNA)
RNA: GGAGCUCAGCCUUCACUGCAUCGAAGCGAUCCAAGUUGUAGGAAUGGGGUAGCUUGGAGGGCACCACGGUCGGAUCCAG
binding result (CGRP (biotinylated)): binds

B5: G12c (ssRNA)
RNA: GGAGCUCAGCCUUCACUGCAUCGAGGCGAUCCAAGUUGAGGAAUGGGGUGGCUUGGAGGGCACCACGGUCGGAUCCAG
binding result (CGRP (biotinylated)): binds

B6: G12f (ssRNA)
RNA: GGAGCUCAGCCUUCACUGCAUCGAGGGCGAUCCAAGUUGUAGGAAUGGGGUGGCUUGGAGGGCACCACGGUCGGAUCCAG
binding result (CGRP (biotinylated)): binds

EC50, cAMP production in SK-N-MC cells [7]: 30 µM
EC50, intracellular cAMP in SK-N-MC cells [7]: 0.03 µM
B7: human adrenomedullin (peptide, UniProt P35318 95-146, looked up)
peptide: YRQSMNNFQGLRSFGCRFGTCTVQKLAHQIYQFTDKDKDNVAPRSKISPQGY

EC50, cAMP production in SK-N-MC cells [7]: 30 µM
EC50, intracellular cAMP in SK-N-MC cells [7]: 0.03 µM
Molecule: YRQSMNQGSRSTGCRFGTCTMQKLAHQIYQFTDKDKDGMAPRNKISPQGY (peptide, UniProt P43145 94-143, looked up) [rat adrenomedullin]

EC50, cAMP production in SK-N-MC cells [8]: 1 µM
Molecule: KCNTATCATQRLANFLVRSSNNLGPVLPPTNVGSNTY (peptide, UniProt P12969 38-74, looked up) [rat amylin]

B8: G12d (ssRNA)
RNA: GGAGCUCAGCCUUCACUGCAUCGAAGGCGAUCCAAGUUGUAAGAAUGGGGGUGGCUUGGAGGGCACCACGGUCGGAUCCAG
binding result (CGRP (biotinylated)): binds

EC50, intracellular cAMP in SK-N-MC cells [9]: 1 µM
cAMP formation in SK-N-MC cells, half-maximum activation [9]: 1 nM
Molecule: SCNTATCVTHRLAGLLSRSGGVVKDNFVPTNVGSEAF (peptide, UniProt P01256 83-119, looked up, ends and bridges not checked; cysteine pairing not given here) [rat α-CGRP (calcitonin gene-related peptide I, rat)]

EC50, intracellular cAMP in SK-N-MC cells [9]: 1 µM
Molecule: ACNTATCVTHRLAGLLSRSGGMVKSNFVPTNVGSKAF (peptide, UniProt P10092 82-118, looked up, ends and bridges not checked; cysteine pairing not given here) [human β-CGRP (calcitonin gene-related peptide II)]

Reference: patent publication US20060183700A1, “Cgrp binding nucleic acids” (NOXXON Pharma AG, published 2006)
